For one assay, the target named is T1, β-catenin (UniProt P35222 2-781).
T1 construct: Endogenous protein in tissue section; also called beta-catenin
T1 sequence (looked up): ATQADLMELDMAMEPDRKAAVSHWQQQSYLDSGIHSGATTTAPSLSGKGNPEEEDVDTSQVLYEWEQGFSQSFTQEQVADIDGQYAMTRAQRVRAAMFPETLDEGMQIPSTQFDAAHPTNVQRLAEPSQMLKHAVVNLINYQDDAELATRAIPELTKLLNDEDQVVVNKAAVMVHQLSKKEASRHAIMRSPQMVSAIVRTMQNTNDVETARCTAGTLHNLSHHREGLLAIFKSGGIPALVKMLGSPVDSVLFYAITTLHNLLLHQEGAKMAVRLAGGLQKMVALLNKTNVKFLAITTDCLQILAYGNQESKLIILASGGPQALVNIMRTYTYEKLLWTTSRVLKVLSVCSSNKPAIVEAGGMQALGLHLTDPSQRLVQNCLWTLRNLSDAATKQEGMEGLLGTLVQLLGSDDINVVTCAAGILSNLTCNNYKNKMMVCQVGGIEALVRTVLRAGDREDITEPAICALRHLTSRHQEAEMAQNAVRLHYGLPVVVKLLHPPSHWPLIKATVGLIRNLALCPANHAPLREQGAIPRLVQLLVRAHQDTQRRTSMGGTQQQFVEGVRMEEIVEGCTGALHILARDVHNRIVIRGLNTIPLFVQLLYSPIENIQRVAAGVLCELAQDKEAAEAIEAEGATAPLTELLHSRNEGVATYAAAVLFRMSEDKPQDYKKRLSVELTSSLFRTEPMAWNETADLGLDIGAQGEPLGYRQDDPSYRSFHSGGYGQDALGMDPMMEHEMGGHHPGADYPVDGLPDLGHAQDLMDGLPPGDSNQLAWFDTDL
The assay can be described thus: in situ proximity assay (chemical ligation and hapten transfer) on FFPE tonsil and skin sections.

In another assay the target is T2, PMS2 (UniProt P54278 1-862).
T2 construct: Endogenous protein of Hela cells in xenograft
T2 sequence (looked up): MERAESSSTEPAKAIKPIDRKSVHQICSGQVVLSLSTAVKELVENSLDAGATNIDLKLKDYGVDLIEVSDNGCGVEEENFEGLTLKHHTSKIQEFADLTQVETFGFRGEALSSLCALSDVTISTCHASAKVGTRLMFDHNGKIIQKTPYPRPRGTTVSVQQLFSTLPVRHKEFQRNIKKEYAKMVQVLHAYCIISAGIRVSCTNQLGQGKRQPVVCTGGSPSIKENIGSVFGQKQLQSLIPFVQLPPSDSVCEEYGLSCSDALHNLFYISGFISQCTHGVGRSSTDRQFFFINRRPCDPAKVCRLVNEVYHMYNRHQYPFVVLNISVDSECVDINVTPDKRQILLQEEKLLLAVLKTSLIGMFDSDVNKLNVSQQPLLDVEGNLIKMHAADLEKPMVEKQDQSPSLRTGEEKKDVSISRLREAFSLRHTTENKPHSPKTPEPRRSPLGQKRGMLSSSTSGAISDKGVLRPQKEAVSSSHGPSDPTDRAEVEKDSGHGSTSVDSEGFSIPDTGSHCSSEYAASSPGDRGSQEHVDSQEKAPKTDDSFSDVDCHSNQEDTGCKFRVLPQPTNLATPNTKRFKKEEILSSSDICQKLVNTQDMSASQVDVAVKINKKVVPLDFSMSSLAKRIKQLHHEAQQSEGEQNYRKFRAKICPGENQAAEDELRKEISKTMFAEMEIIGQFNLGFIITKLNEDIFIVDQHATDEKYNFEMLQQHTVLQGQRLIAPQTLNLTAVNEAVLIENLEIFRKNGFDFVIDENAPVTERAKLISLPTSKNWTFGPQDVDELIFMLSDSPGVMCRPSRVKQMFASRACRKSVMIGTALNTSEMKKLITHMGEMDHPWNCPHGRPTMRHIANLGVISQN
The assay can be described thus: in situ proximity assay on Hela cell xenograft sections.

Assay [1] deals with T3, CD21 (complement receptor type 2) (UniProt P20023 21-1033, limits assumed).
T3 construct: Endogenous protein in tissue section
T3 sequence (looked up): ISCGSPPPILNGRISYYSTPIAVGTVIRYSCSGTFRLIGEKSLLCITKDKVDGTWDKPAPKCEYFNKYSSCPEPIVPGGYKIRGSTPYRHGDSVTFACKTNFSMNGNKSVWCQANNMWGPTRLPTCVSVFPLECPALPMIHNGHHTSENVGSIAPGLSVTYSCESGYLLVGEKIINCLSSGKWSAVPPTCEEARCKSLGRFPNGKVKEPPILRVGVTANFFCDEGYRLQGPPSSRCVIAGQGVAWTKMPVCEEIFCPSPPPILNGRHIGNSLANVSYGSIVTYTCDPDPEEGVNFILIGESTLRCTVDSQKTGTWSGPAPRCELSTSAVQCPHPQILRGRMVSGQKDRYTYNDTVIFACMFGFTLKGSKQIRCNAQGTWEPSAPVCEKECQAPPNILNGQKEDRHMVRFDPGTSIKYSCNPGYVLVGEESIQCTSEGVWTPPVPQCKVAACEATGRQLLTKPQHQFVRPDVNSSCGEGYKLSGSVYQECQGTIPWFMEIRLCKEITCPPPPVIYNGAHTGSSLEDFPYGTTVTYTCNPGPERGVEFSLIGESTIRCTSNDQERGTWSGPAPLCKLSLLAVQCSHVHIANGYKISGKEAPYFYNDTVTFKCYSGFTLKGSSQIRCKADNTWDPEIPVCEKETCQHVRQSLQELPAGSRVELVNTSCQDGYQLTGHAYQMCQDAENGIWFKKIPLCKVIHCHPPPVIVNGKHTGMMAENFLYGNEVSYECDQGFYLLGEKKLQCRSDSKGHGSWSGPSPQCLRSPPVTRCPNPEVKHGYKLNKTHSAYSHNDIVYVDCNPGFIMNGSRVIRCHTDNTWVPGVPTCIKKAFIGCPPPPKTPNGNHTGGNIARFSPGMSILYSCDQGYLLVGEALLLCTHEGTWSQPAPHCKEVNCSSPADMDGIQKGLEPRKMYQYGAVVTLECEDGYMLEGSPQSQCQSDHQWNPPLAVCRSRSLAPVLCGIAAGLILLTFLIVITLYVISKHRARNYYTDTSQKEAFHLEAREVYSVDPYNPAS
Briefly: in situ proximity assay on FFPE normal tonsil sections.
Description: (§1) IHC staining was performed on a VENTANA BenchMark XT automated slide-processing system (Ventana). For all IHC staining, FFPE sections were first deparaffinization with EZ Prep solution (Ventana) and washed with reaction buffer. Antigen retrieval was carried out in Cell Conditioning 1 (Ventana) (100° C.; 92 minutes) and again washed with 1× reaction buffer (Ventana). […] After thorough wash with reaction buffer, secondary antibody conjugates of GAR-PEG₈-SS-HA-N₃ and GAM-PEG₄-CCH (100 μL of 10 μg/mL each) were added to slides and incubated at 37° C. for 32 minutes. The slides were washed in reaction buffer and water before a drop of 100 μL of HEPES buffer (0.15 M, pH 7.4) was added to the slides. To initiate the azide-acetylene click reaction, 100 μL of Cu(I) catalyst solution was added onto the slide. One working example of the Cu(I) solution contained 0.6 mM CuSO₄, 3 mM THPTA, 10 mM HEPES (pH=7.4), 40% DMSO (v/v) and 4 mM of sodium ascorbate (freshly made and added to CuSO₄ immediately before adding to slide). The click reaction was allowed to proceed for 32 minutes and the slides were washed thoroughly in reaction buffer. […] For chromogenic based detection using diaminobenzidine (DAB), ready-to-use solutions of DAB, H₂O₂ and Copper from an [sequence] […]

Description for β-catenin: as §1

B1: E-cadherin (other, UniProt P12830 155-882, looked up)
chain: DWVIPPISCPENEKGPFPKNLVQIKSNKDKEGKVFYSITGQGADTPPVGVFIIERETGWLKVTEPLDRERIATYTLFSHAVSSNGNAVEDPMEILITVTDQNDNKPEFTQEVFKGSVMEGALPGTSVMEVTATDADDDVNTYNAAIAYTILSQDPELPDKNMFTINRNTGVISVVTTGLDRESFPTYTLVVQAADLQGEGLSTTATAVITVTDTNDNPPIFNPTTYKGQVPENEANVVITTLKVTDADAPNTPAWEAVYTILNDDGGQFVVTTNPVNNDGILKTAKGLDFEAKQQYILHVAVTNVVPFEVSLTTSTATVTVDVLDVNEAPIFVPPEKRVEVSEDFGVGQEITSYTAQEPDTFMEQKITYRIWRDTANWLEINPDTGAISTRAELDREDFEHVKNSTYTALIIATDNGSPVATGTGTLLLILSDVNDNAPIPEPRTIFFCERNPKPQVINIIDADLPPNTSPFTAELTHGASANWTIQYNDPTQESIILKPKMALEVGDYKINLKLMDNQNKDQVTTLEVSVCDCEGAAGVCRKAQPVEAGLQIPAILGILGGILALLILILLLLLFLRRRAVVKEPLLPPEDDTRDNVYYYDEEGGGEEDQDFDLSQLHRGLDARPEVTRNDVAPTLMSVPRYLPRPANPDEIGNFIDENLKAADTDPTAPPYDSLLVFDYEGSGSEAASLSSLNSSESDKDQDYDYLNEWGNRFKKLADMYGGGEDD
notes: Endogenous protein in tissue section; also called E-cadherein
Regarding B1, the binding result with β-catenin is on record as “binds”.

B2: MLH1 (other, UniProt P40692 2-756, looked up)
chain: SFVAGVIRRLDETVVNRIAAGEVIQRPANAIKEMIENCLDAKSTSIQVIVKEGGLKLIQIQDNGTGIRKEDLDIVCERFTTSKLQSFEDLASISTYGFRGEALASISHVAHVTITTKTADGKCAYRASYSDGKLKAPPKPCAGNQGTQITVEDLFYNIATRRKALKNPSEEYGKILEVVGRYSVHNAGISFSVKKQGETVADVRTLPNASTVDNIRSIFGNAVSRELIEIGCEDKTLAFKMNGYISNANYSVKKCIFLLFINHRLVESTSLRKAIETVYAAYLPKNTHPFLYLSLEISPQNVDVNVHPTKHEVHFLHEESILERVQQHIESKLLGSNSSRMYFTQTLLPGLAGPSGEMVKSTTSLTSSSTSGSSDKVYAHQMVRTDSREQKLDAFLQPLSKPLSSQPQAIVTEDKTDISSGRARQQDEEMLELPAPAEVAAKNQSLEGDTTKGTSEMSEKRGPTSSNPRKRHREDSDVEMVEDDSRKEMTAACTPRRRIINLTSVLSLQEEINEQGHEVLREMLHNHSFVGCVNPQWALAQHQTKLYLLNTTKLSEELFYQILIYDFANFGVLRLSEPAPLFDLAMLALDSPESGWTEEDGPKEGLAEYIVEFLKKKAEMLADYFSLEIDEEGNLIGLPLLIDNYVPPLEGLPIFILRLATEVNWDEEKECFESLSKECAMFYSIRKQYISEESTLSGQQSEVPGSIPNSWKWTVEHIVYKALRSHILPPKHFTEDGNILQLANLPDLYKVFERC
notes: Endogenous protein of Hela cells in xenograft
As for B2, the binding result with PMS2 is on record as “binds”.

B3: CD19 (receptor, UniProt P15391 20-556, looked up)
chain: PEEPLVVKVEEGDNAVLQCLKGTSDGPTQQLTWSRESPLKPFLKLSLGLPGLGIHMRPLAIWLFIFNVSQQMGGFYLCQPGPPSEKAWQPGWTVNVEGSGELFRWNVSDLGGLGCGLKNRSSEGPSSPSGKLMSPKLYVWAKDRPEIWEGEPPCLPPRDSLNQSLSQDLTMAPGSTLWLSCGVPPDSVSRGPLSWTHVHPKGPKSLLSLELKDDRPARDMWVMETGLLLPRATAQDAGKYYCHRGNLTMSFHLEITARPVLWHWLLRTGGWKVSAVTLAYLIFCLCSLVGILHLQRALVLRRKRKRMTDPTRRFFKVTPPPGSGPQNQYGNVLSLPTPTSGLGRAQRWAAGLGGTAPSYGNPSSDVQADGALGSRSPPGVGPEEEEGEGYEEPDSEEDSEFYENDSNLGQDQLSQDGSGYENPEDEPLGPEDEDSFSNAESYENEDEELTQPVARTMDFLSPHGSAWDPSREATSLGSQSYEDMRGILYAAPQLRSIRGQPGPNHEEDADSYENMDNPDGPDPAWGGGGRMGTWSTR
notes: Endogenous protein in tissue section
As to B3, the binding result in assay [1] is “binds”.

Values taken from patent publication US20170254813A1 (VENTANA MEDICAL SYSTEMS, published 2017).
